Measurements published in patent US20250034266A1 (ZAI LAB SHANGHAI, published 2025).
Each block holds one binder with its values, some of them ahead of it.

Assays:
human CCR8 [1] = biological target: T1, human CCR8 (human, UniProt P51685 1-355); assay: FACS, competition with AF647-human CCL1 on CHO-K1-human CCR8 cells
T1 construct: whole, on cells; also called hCCR8

cynomolgus CCR8 [2] = biological target: T2, cynomolgus CCR8 (cynomolgus, UniProt G7NYJ2 1-355); assay: FACS on ExpiCHO-S-cynomolgus CCR8 cells
T2 construct: whole, on cells
T2 sequence (G7NYJ2 entry or part of it): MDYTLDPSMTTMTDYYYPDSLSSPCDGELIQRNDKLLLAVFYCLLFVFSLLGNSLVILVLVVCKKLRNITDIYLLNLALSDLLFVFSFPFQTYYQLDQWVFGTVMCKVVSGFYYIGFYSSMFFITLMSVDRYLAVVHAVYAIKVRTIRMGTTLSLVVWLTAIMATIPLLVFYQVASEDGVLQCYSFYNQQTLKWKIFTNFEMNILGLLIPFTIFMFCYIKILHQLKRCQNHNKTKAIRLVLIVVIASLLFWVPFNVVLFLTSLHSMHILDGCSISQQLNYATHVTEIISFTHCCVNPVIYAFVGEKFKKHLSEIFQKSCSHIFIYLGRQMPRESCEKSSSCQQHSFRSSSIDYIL

human CCR1 = biological target: T3, human CCR1 (human, UniProt P32246 1-355); assay: FACS on ExpiCHO-S-human CCR1 cells
T3 construct: whole, on cells
T3 sequence (looked up): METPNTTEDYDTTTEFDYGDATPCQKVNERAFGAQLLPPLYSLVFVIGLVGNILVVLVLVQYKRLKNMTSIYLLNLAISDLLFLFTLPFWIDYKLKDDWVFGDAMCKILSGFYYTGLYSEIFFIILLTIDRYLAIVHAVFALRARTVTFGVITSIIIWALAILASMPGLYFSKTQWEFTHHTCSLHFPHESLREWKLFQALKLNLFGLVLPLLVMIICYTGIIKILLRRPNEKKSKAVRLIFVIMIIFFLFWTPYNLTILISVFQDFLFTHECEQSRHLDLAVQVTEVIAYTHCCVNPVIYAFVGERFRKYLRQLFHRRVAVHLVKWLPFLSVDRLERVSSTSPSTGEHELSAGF
Description: (§1) ExpiCHO-S cells were transiently transfected with human CCR1 or human CCR4. A total of 5×10⁴ cells for each well were seeded in 96-well plates and washed with FACS buffer (DPBS containing 1.5% FBS) for once. […] Cells were incubated with 50 μL of diluted antibodies at 4° C. for 1 hour. […] After primary antibody incubation, cells were washed for 3 times by FACS buffer. Then, cells were stained by Alexa Flu647 labeled anti-human IgG secondary antibody (Jackson ImmunoResearch, #109606170) or Alexa Flu647 labeled anti-mouse IgG secondary antibody (Jackson ImmunoResearch, #115605072) at 1:600 dilution in FACS buffer for 0.5 hour at 4° C. Flow cytometry was performed to measure the binding.

human CCR8 [3] = biological target: T1, human CCR8; assay: FACS on HEK293-human CCR8 cells
human CCR4 = biological target: T4, human CCR4 (human, UniProt P51679 1-360); assay: FACS on ExpiCHO-S-human CCR4 cells
T4 construct: whole, on cells
T4 sequence (looked up): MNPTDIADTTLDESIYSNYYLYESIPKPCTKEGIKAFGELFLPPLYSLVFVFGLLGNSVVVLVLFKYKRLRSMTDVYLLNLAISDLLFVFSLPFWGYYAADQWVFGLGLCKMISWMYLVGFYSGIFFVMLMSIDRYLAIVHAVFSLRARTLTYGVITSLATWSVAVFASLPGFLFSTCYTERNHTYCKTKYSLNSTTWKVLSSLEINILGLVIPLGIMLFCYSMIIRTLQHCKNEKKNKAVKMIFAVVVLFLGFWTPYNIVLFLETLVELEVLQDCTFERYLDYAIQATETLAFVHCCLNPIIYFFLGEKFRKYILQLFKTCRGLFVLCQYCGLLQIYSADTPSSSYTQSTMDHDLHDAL
Description: as §1

human CCR8 [4] = biological target: T1, human CCR8; assay: cell-based or functional assay
cynomolgus CCR8 [5] = biological target: T2, cynomolgus CCR8; assay: FACS on HEK293-cynomolgus CCR8 cells
human CCR8 [6] = biological target: T1, human CCR8; assay: FACS, competition with AF647-human CCL1 on CHO-K1-human CCR8 cells; remark: listed apart in the source
human CCR8 [7] = biological target: T1, human CCR8; assay: FACS on CHO-K1-human CCR8 cells
human CCR8 [8] = biological target: T1, human CCR8; assay: FACS on HEK293-human CCR8 cells; remark: listed apart in the source
Description: (§2) A total of 5×10⁴ cells for each well were seeded in 96-well plates and washed with FACS buffer (DPBD containing 1.5% FBS) for once. Antibodies were prepared with 3-fold serial dilution ranging from 100 nM to 0.0017 nM in FACS buffer. Cells were incubated with 50 μL of diluted antibodies at 4° C. for 1 hour. […] After primary antibody incubation, cells were washed for 3 times by FACS buffer. Then, cells were stained by Alexa Flu647 labeled anti-human IgG secondary antibody (Jackson ImmunoResearch, #109606170) or Alexa Flu647 labeled anti-mouse IgG secondary antibody (Jackson ImmunoResearch, #115605072) at 1:600 dilution in FACS buffer for 0.5 hour at 4° C. After washed for 3 times, Flow cytometry was performed to measure the binding.

human CCR8 [9] = biological target: T1, human CCR8; assay: FACS on HuT78 cells (endogenous human CCR8)
Procedure, shortened: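 HuT78 cells with endogenous human CCR8 were incubated with diluted antibodies for 1 h at 4 °C, washed, then stained 0.5 h at 4 °C with Alexa Fluor 647 anti-human IgG (1:600). Binding measured by flow cytometry.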

cynomolgus CCR8 [10] = biological target: T2, cynomolgus CCR8; assay: FACS on HEK293-cynomolgus CCR8 cells; remark: listed apart in the source
Description: as §2

human CCR8 [11] = biological target: T1, human CCR8; assay: FACS, competition with CCL1 on CHO-K1-human CCR8 cells
cynomolgus CCR8 [12] = biological target: T2, cynomolgus CCR8; assay: FACS on HEK293-cynomolgus CCR8 cells; remark: listed apart in the source
Description: as §2

human CCR8 [13] = biological target: T1, human CCR8; assay: FACS, competition with AF647-human CCL1 on CHO-K1-human CCR8 cells; remark: listed apart in the source
human CCR8 [14] = biological target: T1, human CCR8; assay: FACS on HEK293-human CCR8 cells; remark: listed apart in the source
Description: as §2

T1 sequence (P51685 whole entry): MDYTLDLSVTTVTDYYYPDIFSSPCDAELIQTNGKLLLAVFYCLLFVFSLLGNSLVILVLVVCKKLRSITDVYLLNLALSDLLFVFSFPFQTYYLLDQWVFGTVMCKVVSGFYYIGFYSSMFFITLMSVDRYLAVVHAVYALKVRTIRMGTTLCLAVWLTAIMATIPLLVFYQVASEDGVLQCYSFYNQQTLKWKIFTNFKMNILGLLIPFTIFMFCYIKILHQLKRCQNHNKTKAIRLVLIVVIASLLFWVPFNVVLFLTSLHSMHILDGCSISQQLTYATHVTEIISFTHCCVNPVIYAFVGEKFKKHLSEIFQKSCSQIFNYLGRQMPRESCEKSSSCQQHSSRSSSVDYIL

IC50 (human CCR8 [1]): 0.151 nM | Max Inhibition (%) (human CCR8 [1]): 94.6% | EC50 (cynomolgus CCR8 [2]): 0.087 nM | Max MFI (cynomolgus CCR8 [2]): 534 MFI | binding result (human CCR1): no binding (tested: 200 nM) | EC50 (human CCR8 [3]): 0.109 nM | Max MFI (human CCR8 [3]): 5120 MFI | binding result (human CCR4): no binding (tested: 200 nM) | EC50, ADCC with human PBMC (human CCR8 [4]): 0.517 nM | Max specific lysis (%), ADCC with human PBMC (human CCR8 [4]): 13.5%
B1: Hu348-4 (antibody, human IgG1, V domains shown)
VH: EVQLVESGGGLVQPGGSLKLSCATSGFSFSNYRMHWLRQASGKGLEWVGVITVKSDNYGANYAASVKGRFTISRDDSKSSVYLQMNSLKTEDTAVYYCSSLGRVAYWGQGTLVTVSS
VL: DIQMTQSPSSVSASVGDRVTITCKASQNVDTNVVWYQQKPGQSPKALIYSASSRYSGVPSRFSGSGSGTDFTLTISSLQPEDFATYYCQQHNSFPLTFGQGTKLEIK
notes: humanized, human IgG1; also called Hu348-4 HuIgG1

EC50 (cynomolgus CCR8 [5]): 0.0824 nM | Max MFI (cynomolgus CCR8 [5]): 3.53e+06 MFI | IC50 (human CCR8 [6]): 0.119 nM | EC50 (human CCR8 [7]): 0.0487 nM | Max MFI (human CCR8 [7]): 625000 MFI | EC50 (human CCR8 [8]): 0.072 nM | Max MFI (human CCR8 [9]): 32300 MFI | EC50 (cynomolgus CCR8 [10]): 0.12 nM | IC50 (human CCR8 [11]): 0.087 nM | Max Inhibition (%) (human CCR8 [11]): 99.2% | EC50, ADCC with human PBMC (human CCR8 [4]): 0.06 nM | Max specific lysis (%), ADCC with human PBMC (human CCR8 [4]): 7.56%
B2: Hu149-9 (antibody, human IgG1, V domains shown)
VH: EVQLVESGGGLVQPGGSLKLSCAASGFTFNTYAMNWVRQASGKGLEWVGRIRSKSNFYATAYAASVKGRFTISRDDSKNTAYLQMNSLKTEDTAVYYCTRGRDYGSSYAMDYWGQGTLVTVSS
VL: DIVMTQSPLSLPVTPGEPASISCRSSKSLLHSNANTYLYWFLQKPGQSPQLLIYRMSNLASGVPDRFSGSGSGTDFTLKISRVEAEDVGVYYCMQHLEYPLTFGGGTKVELK
notes: humanized, human IgG1; also called Hu149-9 HuIgG1

EC50 (cynomolgus CCR8 [12]): 0.235 nM | Max MFI (cynomolgus CCR8 [12]): 18100 MFI | IC50 (human CCR8 [6]): 0.708 nM | EC50 (human CCR8 [8]): 0.18 nM | IC50 (human CCR8 [13]): 0.681 nM | Max Inhibition (%) (human CCR8 [13]): 97.8% | EC50 (cynomolgus CCR8 [10]): 0.263 nM | EC50 (human CCR8 [14]): 0.142 nM | Max MFI (human CCR8 [14]): 7100 MFI | EC50, ADCC with human PBMC (human CCR8 [4]): 0.067 nM | Max specific lysis (%), ADCC with human PBMC (human CCR8 [4]): 10.3%
B3: CM149 (antibody, V domains shown)
VH: EVQLVESGGGLVQPKGSLKLSCAASGFTFNTYAMNWVRQAPGKGLEWVARIRSKSNFYATYYADSVKDRFTISRDDSQDMLYLQMNILKTEDTAIYYCVRGRDYGSSYAMDYWGQGTSVTVSS
VL: DIVMTQAAPSVPVTPGESVSISCRSSKSLLHSNANTYLYWFLQRPGQSPQLLIYRMSNLASGVPDRFSGSGSGTAFTLRISRVEAEDVGVYYCMQHLEYPLTFGAGTKLELK
notes: CM149 is not defined in words; also called CM149 HuIgG1; parental antibody CM149
